According to patent publication US20250388702A1 (Dana-Farber, published 2025):

What was measured:
Human KIR3DL3 [1] = biological target: T1, Human KIR3DL3 (human, UniProt Q8N743 26-410); assay: cell-based or functional assay
KIR3DL1 = biological target: T2, KIR3DL1 (UniProt P43629 22-444, limits assumed); assay: HEK293 cell microarray
T2 construct: whole, on cells
Procedure: (§1) Replicate microarray slides expressing a complete KIR family cDNA panel were fixed and blocked with buffer containing PBS/0.5% BSA and incubated for 1 hour at room temperature with individual KIR3DL3 mAb hybridoma supernatants at 1:5, 1:25 and 1:250 dilutions in PBS/0.1% BSA. Cell arrays were washed with PBS and incubated for 1 hour at room temperature in PBS/0.1% BSA containing AF647-conjugated goat anti-mouse IgG (H+L) (Life Technologies, A21235). Slides were washed with PBS, dried, and imaged for ZsGreen1 and AF647 fluorescence.
as §1, with “In Table 4, replicate” for “Replicate”, “the” for “a complete”, “panel (as in FIG. 1A, FIG. 2B, and FIG. 2C)” for “panel”

KIR3DL2 = biological target: T3, KIR3DL2 (UniProt P43630 22-455, limits assumed); assay: HEK293 cell microarray
T3 construct: whole, on cells
Procedure: as §1
as §1, with “In Table 4, replicate” for “Replicate”, “the” for “a complete”, “panel (as in FIG. 1A, FIG. 2B, and FIG. 2C)” for “panel”

KIR2DL1 = biological target: T4, KIR2DL1 (UniProt P43626 22-348, limits assumed); assay: HEK293 cell microarray
T4 construct: whole, on cells
Procedure: as §1
as §1, with “In Table 4, replicate” for “Replicate”, “the” for “a complete”, “panel (as in FIG. 1A, FIG. 2B, and FIG. 2C)” for “panel”

KIR2DL2 = biological target: T5, KIR2DL2 (UniProt P43627 22-348, limits assumed); assay: HEK293 cell microarray
T5 construct: whole, on cells
Procedure: as §1
as §1, with “In Table 4, replicate” for “Replicate”, “the” for “a complete”, “panel (as in FIG. 1A, FIG. 2B, and FIG. 2C)” for “panel”

KIR2DL3 = biological target: T6, KIR2DL3 (UniProt P43628 22-341, limits assumed); assay: HEK293 cell microarray
T6 construct: whole, on cells
Procedure: as §1
as §1, with “In Table 4, replicate” for “Replicate”, “the” for “a complete”, “panel (as in FIG. 1A, FIG. 2B, and FIG. 2C)” for “panel”

KIR2DL4 = biological target: T7, KIR2DL4 (UniProt Q99706 22-377, limits assumed); assay: HEK293 cell microarray
T7 construct: whole, on cells
Procedure: as §1
as §1, with “In Table 4, replicate” for “Replicate”, “the” for “a complete”, “panel (as in FIG. 1A, FIG. 2B, and FIG. 2C)” for “panel”

KIR2DL5A = biological target: T8, KIR2DL5A (UniProt Q8N109 22-375, limits assumed); assay: HEK293 cell microarray
T8 construct: whole, on cells
Procedure: as §1
as §1, with “In Table 4, replicate” for “Replicate”, “the” for “a complete”, “panel (as in FIG. 1A, FIG. 2B, and FIG. 2C)” for “panel”

KIR2DL5B = biological target: T9, KIR2DL5B (UniProt Q8NHK3 22-375, limits assumed); assay: HEK293 cell microarray
T9 construct: whole, on cells
Procedure: as §1
as §1, with “In Table 4, replicate” for “Replicate”, “the” for “a complete”, “panel (as in FIG. 1A, FIG. 2B, and FIG. 2C)” for “panel”

KIR2DS1 = biological target: T10, KIR2DS1 (UniProt Q14954 22-304, limits assumed); assay: HEK293 cell microarray
T10 construct: whole, on cells
Procedure: as §1
as §1, with “In Table 4, replicate” for “Replicate”, “the” for “a complete”, “panel (as in FIG. 1A, FIG. 2B, and FIG. 2C)” for “panel”

KIR2DS2 = biological target: T11, KIR2DS2 (UniProt P43631 22-304, limits assumed); assay: HEK293 cell microarray
T11 construct: whole, on cells
Procedure: as §1
as §1, with “In Table 4, replicate” for “Replicate”, “the” for “a complete”, “panel (as in FIG. 1A, FIG. 2B, and FIG. 2C)” for “panel”

KIR2DS3 = biological target: T12, KIR2DS3 (UniProt Q14952 22-304, limits assumed); assay: HEK293 cell microarray
T12 construct: whole, on cells
Procedure: as §1
as §1, with “In Table 4, replicate” for “Replicate”, “the” for “a complete”, “panel (as in FIG. 1A, FIG. 2B, and FIG. 2C)” for “panel”

KIR2DS5 = biological target: T13, KIR2DS5 (UniProt Q14953 22-304, limits assumed); assay: HEK293 cell microarray
T13 construct: whole, on cells
Procedure: as §1
as §1, with “In Table 4, replicate” for “Replicate”, “the” for “a complete”, “panel (as in FIG. 1A, FIG. 2B, and FIG. 2C)” for “panel”

KIR3DS1 = biological target: T14, KIR3DS1 (UniProt Q14943 22-382, limits assumed); assay: HEK293 cell microarray
T14 construct: whole, on cells
Procedure: as §1
as §1, with “In Table 4, replicate” for “Replicate”, “the” for “a complete”, “panel (as in FIG. 1A, FIG. 2B, and FIG. 2C)” for “panel”

Human KIR3DL3 [2] = biological target: T1, Human KIR3DL3; assay: flow cytometry, KIR3DL3-transfected 300.19 cells
Human KIR3DL3 [3] = biological target: T1, Human KIR3DL3; assay: flow cytometry, KIR3DL3-transfected 300.19 cells; remark: listed apart in the source
Human KIR3DL3 [4] = biological target: T1, Human KIR3DL3; assay: flow cytometry; blockade of HHLA2-mIgG2a binding to KIR3DL3-transfected cells
Procedure: (§2) The indicated concentrations of KIR3DL3 mAbs were pre-incubated with KIR3DL3 transfected 300.19 cells for 30 minutes at 4° C. […] EC50 and IC50 analysis were conducted using GraphPad Prism®.

Human KIR3DL3 [5] = biological target: T1, Human KIR3DL3; assay: flow cytometry; blockade of HHLA2-mIgG2a binding to KIR3DL3-transfected 300.19 cells
Procedure: as §2

T1 sequence (Q8N743 26-410 H321N limits assumed): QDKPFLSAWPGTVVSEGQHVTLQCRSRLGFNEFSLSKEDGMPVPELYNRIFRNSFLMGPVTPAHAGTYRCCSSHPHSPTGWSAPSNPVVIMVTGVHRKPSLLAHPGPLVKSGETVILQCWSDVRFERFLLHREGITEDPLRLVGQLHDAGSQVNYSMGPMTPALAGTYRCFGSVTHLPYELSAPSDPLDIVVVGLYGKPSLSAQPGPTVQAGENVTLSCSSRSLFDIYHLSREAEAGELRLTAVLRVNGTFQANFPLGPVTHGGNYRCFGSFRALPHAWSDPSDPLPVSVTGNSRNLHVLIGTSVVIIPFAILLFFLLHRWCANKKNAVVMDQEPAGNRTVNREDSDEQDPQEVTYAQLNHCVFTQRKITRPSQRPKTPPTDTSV
T6 sequence (P43628 22-341 limits assumed): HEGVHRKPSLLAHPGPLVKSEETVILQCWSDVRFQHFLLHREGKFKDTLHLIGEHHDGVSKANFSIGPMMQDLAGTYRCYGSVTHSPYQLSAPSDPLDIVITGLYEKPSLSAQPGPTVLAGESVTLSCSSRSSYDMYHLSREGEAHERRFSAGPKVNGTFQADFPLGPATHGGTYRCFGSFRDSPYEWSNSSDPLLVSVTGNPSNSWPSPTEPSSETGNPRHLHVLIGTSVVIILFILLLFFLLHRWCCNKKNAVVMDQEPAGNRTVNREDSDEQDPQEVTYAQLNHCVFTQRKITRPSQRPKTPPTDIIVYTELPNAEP
T11 sequence (P43631 22-304 limits assumed): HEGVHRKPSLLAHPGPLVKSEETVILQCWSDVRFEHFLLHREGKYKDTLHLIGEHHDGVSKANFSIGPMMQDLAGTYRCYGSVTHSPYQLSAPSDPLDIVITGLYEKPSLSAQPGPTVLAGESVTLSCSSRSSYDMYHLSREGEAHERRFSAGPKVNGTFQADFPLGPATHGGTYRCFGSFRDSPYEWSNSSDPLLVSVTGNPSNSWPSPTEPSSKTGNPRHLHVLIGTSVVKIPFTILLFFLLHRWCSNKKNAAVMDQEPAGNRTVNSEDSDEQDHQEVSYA
T7 sequence (Q99706 22-377 limits assumed): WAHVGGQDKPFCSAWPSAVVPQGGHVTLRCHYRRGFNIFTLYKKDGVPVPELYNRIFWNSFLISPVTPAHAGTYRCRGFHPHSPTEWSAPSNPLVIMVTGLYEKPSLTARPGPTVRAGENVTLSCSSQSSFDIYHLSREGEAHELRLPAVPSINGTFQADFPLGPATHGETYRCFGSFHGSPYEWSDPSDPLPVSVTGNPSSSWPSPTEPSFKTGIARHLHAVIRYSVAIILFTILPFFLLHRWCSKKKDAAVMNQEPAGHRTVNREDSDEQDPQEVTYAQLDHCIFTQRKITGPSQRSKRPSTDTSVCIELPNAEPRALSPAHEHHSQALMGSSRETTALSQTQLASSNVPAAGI
T8 sequence (Q8N109 22-375 limits assumed): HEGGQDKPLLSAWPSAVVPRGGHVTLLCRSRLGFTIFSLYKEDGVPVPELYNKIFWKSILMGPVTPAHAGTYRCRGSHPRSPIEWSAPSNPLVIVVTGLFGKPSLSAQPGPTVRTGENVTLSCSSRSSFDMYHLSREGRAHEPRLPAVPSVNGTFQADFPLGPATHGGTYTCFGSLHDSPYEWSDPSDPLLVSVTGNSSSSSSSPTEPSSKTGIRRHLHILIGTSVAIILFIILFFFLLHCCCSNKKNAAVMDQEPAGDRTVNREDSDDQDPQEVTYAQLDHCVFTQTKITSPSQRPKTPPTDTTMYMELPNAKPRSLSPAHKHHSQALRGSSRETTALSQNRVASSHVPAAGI
T5 sequence (P43627 22-348 limits assumed): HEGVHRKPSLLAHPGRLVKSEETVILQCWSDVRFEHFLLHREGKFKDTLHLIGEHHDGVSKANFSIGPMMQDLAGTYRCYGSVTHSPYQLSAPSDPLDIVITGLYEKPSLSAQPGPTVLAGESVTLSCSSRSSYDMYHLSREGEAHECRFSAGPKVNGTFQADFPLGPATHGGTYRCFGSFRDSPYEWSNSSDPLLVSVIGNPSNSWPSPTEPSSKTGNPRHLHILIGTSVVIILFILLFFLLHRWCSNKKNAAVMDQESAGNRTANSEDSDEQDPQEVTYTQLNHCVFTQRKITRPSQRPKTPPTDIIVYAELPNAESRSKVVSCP
T13 sequence (Q14953 22-304 limits assumed): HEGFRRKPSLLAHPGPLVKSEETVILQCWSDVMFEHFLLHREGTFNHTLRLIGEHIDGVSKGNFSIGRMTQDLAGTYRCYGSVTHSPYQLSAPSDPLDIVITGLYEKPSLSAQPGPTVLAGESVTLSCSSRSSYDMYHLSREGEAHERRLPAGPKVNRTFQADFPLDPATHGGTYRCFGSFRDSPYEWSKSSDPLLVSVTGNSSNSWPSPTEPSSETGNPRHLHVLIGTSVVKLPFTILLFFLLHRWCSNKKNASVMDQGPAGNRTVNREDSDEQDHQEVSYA
T3 sequence (P43630 22-455 limits assumed): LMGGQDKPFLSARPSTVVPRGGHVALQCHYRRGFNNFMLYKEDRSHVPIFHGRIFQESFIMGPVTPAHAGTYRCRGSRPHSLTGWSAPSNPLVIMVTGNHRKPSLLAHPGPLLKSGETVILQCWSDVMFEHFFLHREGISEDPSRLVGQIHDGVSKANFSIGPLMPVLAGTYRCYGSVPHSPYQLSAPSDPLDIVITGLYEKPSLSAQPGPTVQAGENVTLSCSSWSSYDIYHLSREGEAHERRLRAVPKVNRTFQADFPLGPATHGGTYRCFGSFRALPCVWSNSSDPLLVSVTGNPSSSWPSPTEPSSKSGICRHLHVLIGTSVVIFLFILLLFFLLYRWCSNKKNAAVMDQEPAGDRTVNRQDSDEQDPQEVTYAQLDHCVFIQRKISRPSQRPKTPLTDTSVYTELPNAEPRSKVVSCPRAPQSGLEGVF
T9 sequence (Q8NHK3 22-375 limits assumed): as the sequence (Q8N109 22-375 limits assumed) above, with N152D, G174S counted along it
T4 sequence (P43626 22-348 limits assumed): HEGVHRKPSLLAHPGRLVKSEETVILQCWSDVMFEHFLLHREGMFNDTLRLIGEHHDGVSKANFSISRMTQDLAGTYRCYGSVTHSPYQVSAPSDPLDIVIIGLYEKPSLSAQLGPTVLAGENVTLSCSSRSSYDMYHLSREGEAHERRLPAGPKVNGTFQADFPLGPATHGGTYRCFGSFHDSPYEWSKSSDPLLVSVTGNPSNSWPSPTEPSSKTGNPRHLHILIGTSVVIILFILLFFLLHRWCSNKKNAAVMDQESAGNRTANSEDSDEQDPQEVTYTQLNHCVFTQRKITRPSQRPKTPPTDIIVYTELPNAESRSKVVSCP
T10 sequence (Q14954 22-304 limits assumed): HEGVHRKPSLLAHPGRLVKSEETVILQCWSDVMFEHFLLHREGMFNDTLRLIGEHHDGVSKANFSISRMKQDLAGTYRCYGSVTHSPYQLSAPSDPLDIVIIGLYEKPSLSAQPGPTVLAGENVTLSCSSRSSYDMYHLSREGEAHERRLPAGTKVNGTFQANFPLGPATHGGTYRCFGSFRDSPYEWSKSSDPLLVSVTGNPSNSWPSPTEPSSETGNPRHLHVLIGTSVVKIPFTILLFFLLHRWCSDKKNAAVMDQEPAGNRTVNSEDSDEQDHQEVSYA
T2 sequence (P43629 22-444 limits assumed): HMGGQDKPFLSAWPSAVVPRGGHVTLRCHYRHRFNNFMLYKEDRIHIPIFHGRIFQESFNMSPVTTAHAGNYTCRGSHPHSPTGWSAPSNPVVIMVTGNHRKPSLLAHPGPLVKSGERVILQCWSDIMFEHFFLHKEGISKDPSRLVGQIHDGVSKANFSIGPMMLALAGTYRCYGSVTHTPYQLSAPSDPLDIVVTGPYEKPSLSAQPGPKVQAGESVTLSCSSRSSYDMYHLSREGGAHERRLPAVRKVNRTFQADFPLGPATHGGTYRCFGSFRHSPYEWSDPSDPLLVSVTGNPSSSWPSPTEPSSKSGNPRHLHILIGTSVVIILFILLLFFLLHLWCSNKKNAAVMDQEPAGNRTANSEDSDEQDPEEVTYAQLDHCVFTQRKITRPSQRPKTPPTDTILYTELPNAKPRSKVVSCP
T14 sequence (Q14943 22-382 limits assumed): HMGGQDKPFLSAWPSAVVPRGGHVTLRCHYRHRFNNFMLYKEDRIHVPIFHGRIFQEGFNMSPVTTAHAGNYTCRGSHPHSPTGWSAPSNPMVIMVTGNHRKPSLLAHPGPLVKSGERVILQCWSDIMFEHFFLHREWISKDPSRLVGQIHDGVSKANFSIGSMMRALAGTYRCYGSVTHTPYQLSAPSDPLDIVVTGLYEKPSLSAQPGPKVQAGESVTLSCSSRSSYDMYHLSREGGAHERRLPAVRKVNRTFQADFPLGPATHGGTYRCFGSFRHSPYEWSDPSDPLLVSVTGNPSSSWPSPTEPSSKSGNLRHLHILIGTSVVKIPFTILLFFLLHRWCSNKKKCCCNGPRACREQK
T12 sequence (Q14952 22-304 limits assumed): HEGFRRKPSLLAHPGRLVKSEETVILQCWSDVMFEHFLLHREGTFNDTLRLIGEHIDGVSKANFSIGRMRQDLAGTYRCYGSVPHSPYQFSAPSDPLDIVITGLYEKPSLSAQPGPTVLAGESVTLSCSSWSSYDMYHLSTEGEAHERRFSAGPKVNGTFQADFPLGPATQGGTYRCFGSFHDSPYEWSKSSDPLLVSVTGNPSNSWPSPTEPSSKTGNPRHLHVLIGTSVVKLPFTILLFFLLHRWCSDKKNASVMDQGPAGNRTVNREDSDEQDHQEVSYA

B1: KIR3DL3 mAb 574.2.8F7.1.7.4 (antibody, IgG1, V domains shown)
VH: DVKLVESGGGLVKPGGSLKLSCAASGFTFSSYCMSWVRQTPEKRLEWVATISSGGNYIYYPDSVKGRFTISRDIAKNTLYLQMSSLKSEDTAMYYCTRGGYDERYFDYWGQGTILTVSS
VL: DIQMTQSPASLSASVGETVTITCRASENIYSYLAWYQQKQGKSPQLLVYNAKTLTEGMPSRFSGSGSGTQFSLRINSLQPEDFGSYYCQHHHGTPRTFGGGTKLEIK
notes: Mouse hybridoma antibody, IgG1; only variable domains given; also called AVS-3700
For B1, the “Jurkat IL-2 Luciferase, Fold Activation” value (Human KIR3DL3 [1]) was 1.2 fold, the binding result (KIR3DL1) was “no binding (tested: supernatant 1:5, 1:25, 1:250)” and the binding result (KIR3DL2) was “no binding (tested: supernatant 1:5, 1:25, 1:250)”. B1: no binding (tested: supernatant 1:5, 1:25, 1:250) (KIR2DL1); no binding (tested: supernatant 1:5, 1:25, 1:250) (KIR2DL2); no binding (tested: supernatant 1:5, 1:25, 1:250) (KIR2DL3). B1: no binding (tested: supernatant 1:5, 1:25, 1:250) (KIR2DL4); no binding (tested: supernatant 1:5, 1:25, 1:250) (KIR2DL5A); no binding (tested: supernatant 1:5, 1:25, 1:250) (KIR2DL5B). B1: no binding (tested: supernatant 1:5, 1:25, 1:250) (KIR2DS1); no binding (tested: supernatant 1:5, 1:25, 1:250) (KIR2DS2); no binding (tested: supernatant 1:5, 1:25, 1:250) (KIR2DS3). The binding result (KIR2DS5) was “no binding (tested: supernatant 1:5, 1:25, 1:250)”, the binding result (KIR3DS1) was “no binding (tested: supernatant 1:5, 1:25, 1:250)” and the Kd (Human KIR3DL3 [2]) was 1 µg/mL. For the same binder, the EC50 (Human KIR3DL3 [3]) was 1 µg/mL, the IC50 (Human KIR3DL3 [4]) was over 10 µg/mL and the IC50 (Human KIR3DL3 [5]) was 27.5 µg/mL.
